{
  "source": "patent EP4772624A1",
  "molecular_target": "human IgG1 antibody against KLH (keyhole limpet hemocyanin)",
  "test": "cell-based or functional assay",
  "data": [
    {"substance": "wild-type IdeZ-mouse Fc fusion protein (from UniProt P01868 103-324)", "values": [
      {"measurement": "cleavage of human IgG1 antibody (SDS-PAGE, reducing; 37 C, 2 h): highest concentration ratio of antibody to fusion protein at which cleavage was confirmed (times (antibody to fusion protein))", "value": 33}
    ]}
  ]
}
